The target in this series is Musashi-2 (MSI2) (UniProt Q96DH6 1-328). The series is described as follows: EMSA; 10 mM HEPES pH 7.6, 20 mM KCl, 1 mM MgCl2, 1 mM DTT, 5% glycerol, protease inhibitors, 2 ug tRNA, 20 U SUPERase-In, 20 ul, 50 ng MSI2, 20 ng RNA, 25 C; 8% PAGE. To be noted: protein: recombinant; label: 5'-32P. A general note: In EMSA bound probe runs differently from free probe, usually more slowly.
Chain of Musashi-2 (MSI2) (Q96DH6 whole entry): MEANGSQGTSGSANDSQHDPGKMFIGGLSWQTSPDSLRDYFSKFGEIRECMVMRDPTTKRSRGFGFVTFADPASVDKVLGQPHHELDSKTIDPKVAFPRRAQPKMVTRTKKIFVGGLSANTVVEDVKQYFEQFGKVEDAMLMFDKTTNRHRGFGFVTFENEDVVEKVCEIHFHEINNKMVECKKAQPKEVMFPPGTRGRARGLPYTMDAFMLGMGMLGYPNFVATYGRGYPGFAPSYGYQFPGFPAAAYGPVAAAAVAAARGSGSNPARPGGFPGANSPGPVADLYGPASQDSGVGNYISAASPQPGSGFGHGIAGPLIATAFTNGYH

B1: EGFR Oligo 1 wt (ssRNA)
RNA: GCAGAUGUUUUAGAAGGAAAAA
B1: the binding result is given as “binds”.

B2: Positive Control oligo (ssRNA)
RNA: GUAGUAGUAGUAGUA
As to B2, the binding result is listed as “binds”.

B3: Negative Control oligo (ssRNA)
RNA: GGUCCCAAGCCAAGCCUUAAGU
On to B3, for which the binding result is listed as “no binding”.

B4: EGFR Oligo 2 wt (ssRNA)
RNA: UAACUUCGUUUUAGAAACAUUCAAG
As to B4, the binding result is “binds”.

The record behind these values is PMC7961039, “Musashi-2 (MSI2) regulates epidermal growth factor receptor (EGFR) expression and response to EGFR inhibitors in EGFR-mutated non-small cell lung cancer (NSCLC)”.
